The source of these data is article PMC4985284, “Monochromatic multicomponent fluorescence sedimentation velocity for the study of high-affinity protein interactions” (eLife, 2016).

Several values for one entry are separate records, joined by “and”; a condition that tells them apart may be missing. Equal values may be shown once. Read-outs that look alike come from different tables or passages of the source.

First the molecules themselves.
B1: fusion protein of GluA3-ATD and rsEGFP2 (rsEGFP2-GluA3) (domain or fragment, UniProt P19492 23-408, looked up)
chain: GFPNTISIGGLFMRNTVQEHSAFRFAVQLYNTNQNTTEKPFHLNYHVDHLDSSNSFSVTNAFCSQFSRGVYAIFGFYDQMSMNTLTSFCGALHTSFVTPSFPTDADVQFVIQMRPALKGAILSLLSYYKWEKFVYLYDTERGFSVLQAIMEAAVQNNWQVTARSVGNIKDVQEFRRIIEEMDRRQEKRYLIDCEVERINTILEQVVILGKHSRGYHYMLANLGFTDILLERVMHGGANITGFQIVNNENPMVQQFIQRWVRLDEREFPEAKNAPLKYTSALTHDAILVIAEAFRYLRRQRVDVSRRGSAGDCLANPAVPWSQGIDIERALKMVQVQGMTGNIQFDTYGRRTNYTIDVYEMKVSGSRKAGYWNEYERFVPFSDQQIS
modifications: native complex glycosylation
notes: GluA3 AMPA receptor amino-terminal domain, residues Gly23-Ser408; The fluorescent protein is the detection tag and is not written as a part; it is joined by SGSG (before) and SGS (after); The methods call the fluorescent protein rsEGFP, the results rsEGFP2; Cut with thrombin; also called rsEGFP-GluA3 ATD fusion construct; source: HEK293T, transient transfection, secreted, purified (HiTrap NTA, …)
B2: Dylight488-labeled GluA2-ATD (amino-terminal domain of the AMPA receptor GluA2) (domain or fragment, UniProt P19491 22-404, looked up)
chain: VSSNSIQIGGLFPRGADQEYSAFRVGMVQFSTSEFRLTPHIDNLEVANSFAVTNAFCSQFSRGVYAIFGFYDKKSVNTITSFCGTLHVSFITPSFPTDGTHPFVIQMRPDLKGALLSLIEYYQWDKFAYLYDSDRGLSTLQAVLDSAAEKKWQVTAINVGNINNDKKDETYRSLFQDLELKKERRVILDCERDKVNDIVDQVITIGKHVKGYHYIIANLGFTDGDLLKIQFGGANVSGFQIVDYDDSLVSKFIERWSTLEEKEYPGAHTATIKYTSALTYDAVQVMTEAFRNLRKQRIEISRRGNAGDCLANPAVPWGQGVEIERALKQVQVEGLSGNIKFDQNGKRINYTINIMELKTNGPRKIGYWSEVDKMVVTLTELPS
modifications: Dylight488 (N-hydroxysuccinimide ester-activated dye); native complex glycosylation
notes: signal peptide in the construct; secreted; Cut with thrombin after IMAC; also called DL488-GluA2; source: HEK293T, transient transfection, secreted, purified (HiTrap NTA, thrombin, HiTrap Q); labelled with Dylight488 and separated from free dye on Superdex 75; not shown: His8, C-terminal, cleaved

Series [1] addresses GluA3 ATD (Rattus norvegicus) (UniProt P19492). Conditions: cited from earlier work.
In series [2] the target is GluA2 ATD (Rattus norvegicus) (UniProt P19491). Conditions: cited from earlier work.
Series [3] has the same target. The note with it: cited from earlier work. The source holds these as a separate data set.
Series [4] has as its target GluA3 ATD (Rattus norvegicus) (UniProt P19492). The note with it: cited from earlier work. The source holds these as a separate data set.
Series [5] addresses B2. The experiment in a line: AUC; MCMC FDS-SV, equimolar dilution series of DL488-GluA2 and rsEGFP2-GluA3 from 0.1-30 nM, 13 mW excitation beam, 50,000 rpm, 20°C; global fit of component sw isotherms with a linked homo- and hetero-dimerization model, K_(d,22) fixed at 27.1 nM. The note with it: both partners purified.
Series [6] deals with the molecule itself. The experiment in a line: AUC; fluorescence-detected sedimentation velocity (FDS-SV), dilution series of DL488-GluA2 from 0.2 nM to 200 nM, 50,000 rpm, 20°C, 488 nm excitation; c(s) and sw isotherm with monomer-dimer model; dimer to monomers; 0.1 mg/ml unlabeled BSA added.
Series [7] deals with B1. The experiment in a line: AUC; MCMC FDS-SV, equimolar dilution series of DL488-GluA2 and rsEGFP2-GluA3 from 0.1-30 nM, 13 mW excitation beam, 50,000 rpm, 20°C; global fit of component sw isotherms with a linked homo- and hetero-dimerization model, K_(d,22) fixed at 27.1 nM. Conditions: both partners purified.
In series [8] the target is B1. The experiment in a line: AUC; FRAP-like FDS-SV, equimolar mixtures of rsEGFP2-GluA3 and DL488-GluA2, 20 min stationary 488 nm exposure at 6.5 cm before scanning, 50,000 rpm, 20°C; component sw isotherm with competitive homo- and hetero-dimerization model. The note with it: both partners purified.

Consider GluA3 ATD (from UniProt P19492), for which the Kd (usually the free concentration of one partner at which half of the binding sites on the other are occupied at equilibrium, for simple one-to-one binding) in series [1] is 5600 nM.
Consider GluA2 ATD (from UniProt P19491), for which the values for the Kd in series [2], in series [3] and in series [4] were 1.8 nM, 20.5 nM and 1.3 nM, respectively.
For the molecule B1, in series [5], the stoichiometry N (as a rule, a count of units in the complex or per binding partner) was 1.
Consider B2, for which the dissociation constant (Kd) in series [6] was 24 nM and 27.1 nM; in series [7], 0.32 nM; in series [8], 0.68 nM. Besides, the “stoichiometry N” value in series [6] turned out to be 2.
